# Source: publication PMC3291610, “Identification of the Neogenin-Binding Site on the Repulsive Guidance Molecule A” (PLoS ONE, 2012)
# Target: T1, Recombinant mouse neogenin-Fc chimera protein (mouse, UniProt P97798 37-1136)
# T1 construct: neogenin, mouse, extracellular domain (ECD); No catalogue number printed; detected by an anti-IgG Fc antibody; also called neogenin-ECD-Fc; Fc-fused neogenin ECD; source: bought: R&D Systems
# T1 sequence (looked up): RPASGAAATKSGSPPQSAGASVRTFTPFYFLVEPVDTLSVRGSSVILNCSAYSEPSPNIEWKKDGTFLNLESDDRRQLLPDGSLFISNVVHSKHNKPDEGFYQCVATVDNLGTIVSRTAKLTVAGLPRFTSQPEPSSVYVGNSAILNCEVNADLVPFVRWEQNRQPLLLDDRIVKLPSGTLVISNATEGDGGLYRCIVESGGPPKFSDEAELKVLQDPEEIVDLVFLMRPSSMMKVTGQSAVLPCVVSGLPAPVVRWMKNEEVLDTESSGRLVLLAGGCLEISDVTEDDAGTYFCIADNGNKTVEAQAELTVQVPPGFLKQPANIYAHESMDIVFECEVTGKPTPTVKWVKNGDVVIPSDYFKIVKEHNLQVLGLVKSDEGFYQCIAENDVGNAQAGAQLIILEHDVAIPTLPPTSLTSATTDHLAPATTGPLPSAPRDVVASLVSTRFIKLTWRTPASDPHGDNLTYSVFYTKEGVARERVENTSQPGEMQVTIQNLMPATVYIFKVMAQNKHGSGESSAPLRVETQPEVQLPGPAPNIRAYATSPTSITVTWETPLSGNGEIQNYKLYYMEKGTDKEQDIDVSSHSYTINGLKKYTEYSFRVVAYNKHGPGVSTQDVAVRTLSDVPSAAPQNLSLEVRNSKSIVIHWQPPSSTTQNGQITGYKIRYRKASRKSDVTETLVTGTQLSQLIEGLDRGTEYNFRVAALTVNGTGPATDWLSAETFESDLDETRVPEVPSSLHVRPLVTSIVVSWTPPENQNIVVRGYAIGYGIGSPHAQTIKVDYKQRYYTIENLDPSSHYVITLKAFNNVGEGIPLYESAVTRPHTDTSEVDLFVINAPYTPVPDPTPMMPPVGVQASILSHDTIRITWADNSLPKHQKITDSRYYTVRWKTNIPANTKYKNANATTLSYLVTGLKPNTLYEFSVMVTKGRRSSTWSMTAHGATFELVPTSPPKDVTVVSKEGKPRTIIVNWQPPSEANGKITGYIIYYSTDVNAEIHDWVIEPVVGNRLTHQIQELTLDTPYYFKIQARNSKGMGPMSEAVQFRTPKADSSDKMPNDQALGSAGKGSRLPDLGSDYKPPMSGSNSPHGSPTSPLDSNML
# Experiment: ELISA; synthetic TAT-RGMa peptides coated on the plate (5 µg/mL, 16 h, 4°C), blocked with 5% BSA/PBS; neogenin-Fc added at 1 µg/mL for 1 h; detected with anti-IgG Fc antibody and HRP secondary, A450
# Settings: both partners purified
binder,measurement,value
"YGRKKRRQRRRRQVGRYLTFA (The TAT-fused form was used in the ELISA; peptide 4 without TAT was used in the growth cone collapse assay; also called Pep4; source: synthetic peptide (SIGMA Life Science, Japan)) [RGMa peptide 4 (aa 284-293) fused with an N-terminal TAT protein]",binding result,binds
